Results taken from article PMC9348664, “PFKFB4 interacts with ICMT and activates RAS/AKT signaling-dependent cell migration in melanoma” (Life Science Alliance, 2022).

Molecular target: the molecule itself
Experiment: two-hybrid; MaMTH (mammalian membrane split-ubiquitin two-hybrid) in MaMTH-modified HEK293T cells; bait fused to Cub-GAL4, prey fused to Nub; GAL4-driven luciferase normalised to Renilla

B1: human PFKFB4 as MaMTH fusions (PFKFB4-Cub-GAL4 bait; PFKFB4-Nub prey) (enzyme, UniProt Q16877 1-469, looked up)
chain: MASPRELTQNPLKKIWMPYSNGRPALHACQRGVCMTNCPTLIVMVGLPARGKTYISKKLTRYLNWIGVPTREFNVGQYRRDVVKTYKSFEFFLPDNEEGLKIRKQCALAALRDVRRFLSEEGGHVAVFDATNTTRERRATIFNFGEQNGYKTFFVESICVDPEVIAANIVQVKLGSPDYVNRDSDEATEDFMRRIECYENSYESLDEDLDRDLSYIKIMDVGQSYVVNRVADHIQSRIVYYLMNIHVTPRSIYLCRHGESELNLKGRIGGDPGLSPRGREFAKSLAQFISDQNIKDLKVWTSQMKRTIQTAEALGVPYEQWKVLNEIDAGVCEEMTYEEIQDNYPLEFALRDQDKYRYRYPKGESYEDLVQRLEPVIMELERQENVLVICHQAVMRCLLAYFLDKAAEQLPYLKCPLHTVLKLTPVAYGCKVESIFLNVAAVNTHRDRPQNVDISRPPEEALVTVPAHQ
notes: 6-phosphofructo-2-kinase/fructose-2,6-biphosphatase 4 (PFKFB4), human, inserted in-frame into the MaMTH bait or prey vectors; One molecule for the differently tagged copies of the same protein; The bait copy carries Cub-GAL4; The prey copy carries Nub at its N- or C-terminus (both were tested against the PFKFB4 bait); also called hPFKFB4; source: MaMTH-modified HEK293T, transfected, in cells; not …
fold increase of luciferase expression over PFKFB4-Cub-GAL4 alone (Nub at the C-terminus of the prey): 13 times | fold increase of luciferase expression over PFKFB4-Cub-GAL4 alone (Nub at the N-terminus of the prey): 5 times
